What was measured:
[1] = target: alpha-synuclein sonicated preformed fibrils (soluble fibrils) (human) (UniProt P37840); experiment: SPR, antibody immobilized, kinetic fitting, 1:1 model
[2] = target: alpha-synuclein oligomers (UniProt P37840); experiment: as above
[3] = target: alpha-synuclein physiological tetramer (UniProt P37840); experiment: SPR, antibody immobilized, steady state fitting
[4] = target: alpha-synuclein monomer (UniProt P37840); experiment: SPR, antibody immobilized, steady state fitting
[5] = target: alpha-synuclein in Lewy Body Disease (LBD/DLB) brain (human) (UniProt P37840); experiment: dot blot signal on LBD brain extract over control brain extract

Fold of reactivity LBD vs. Control (LBD / Control) [5]	Substance	Kd [1]	koff [1]	kon [1]	Kd [2]	koff [2]	kon [2]	Kd [3]	Kd [4]
–	NI-202.12F4 (Creative Biolabs) (antibody)	0.012 µM	3.75e-05 s⁻¹	3100 M⁻¹ s⁻¹	0.131 µM	0.001 s⁻¹	7640 M⁻¹ s⁻¹	14 µM	8.6 µM
–	Prasinezumab, Human IgG, PRX002/RG7935, Creative Biolabs (antibody)	0.011 µM	0.000209 s⁻¹	19500 M⁻¹ s⁻¹	0.072 µM	0.00181 s⁻¹	25100 M⁻¹ s⁻¹	0.05 µM	0.1 µM
3.8 fold	Syn-F1 aggregation/fibril preferring antibody	–	–	–	–	–	–	–	–
2.2 fold	pan-Alpha Syn Antibody (4D6) (Biolegend)	–	–	–	–	–	–	–	–

Reference: US20230051538A1
